Experimental data from patent US20090155873A1, “BIOFUEL PRODUCTION” (BIO ARCHITECTURE LAB, INC., priority 2007, published 2009).
Blank lines part the entries; values can stand above or below the molecule they belong to.

Legend:
[1] = Sequential reaction of diol dehydrogenase and diol dehydratase on butyroin (GC-MS); format: biochemical; details: 37° C., 40 hours, NADH, coenzyme B12, GC-MS, FIGS. 26-27
Description: Diol dehydrogenase ddh from Klebsiella pneumoniae MGH 78578 and diol dehydratase pduCDE from Klebsiella pneumoniae MGH 78578 were cloned into a bacterial expression vector and expressed and purified on a Ni-NTA column, as described in Example X except that 1 mM of 1,2-propanediol was added at all time during the expression and purification of diol dehydratase. The large, medium, and small subunits of the pduCDE polypeptide are encoded by the nucleotide sequences of SEQ ID NOs:103, 105, and 107, respectively, and the polypeptide sequence are set forth in SEQ ID NOs: 104, 106, and 108, respectively.
The ddh3 and pduCDE polypeptides were incubated with butyroin and their appropriate cofactors, then assayed using gas chromatography-mass spectrometry (GC-MS) for their ability to perform sequential reactions resulting in the product 4-octanone. The reaction mixture was incubated at 37° C. for 40 hours in a 0.6 mL eppendorf tube with minimal head space. The reaction product was extracted with an equivalent volume of ethyl acetate, stored in a glass vial, and sent to Thermo Fischer Scientific Instruments Division for compositional analysis by GC-MS.

[2] = TBA assay for secreted alginate lyase; format: cell-based; details: BL21 cells, LB+2% alginate+0.1 mM IPTG, overnight culture media, FIG. 47
Description: The Vs24254 (SEQ ID NO: 32) region of Vibro spendidus encodes a functional external alginate lyase. BL21 cells expressing Vs24254 from the pET28 vector were capable of breaking down alginate in the growth medium. […] This assay was performed by spinning down an overnight culture grown on the above mentioned media. The media was then mixed in a 1:1 ratio with 0.8% thiobarbituric acid (TBA), heated for 10 min at 99 degrees Celsius, and assayed for pink coloration. […] Wildtype E. coli cells not expressing any recombinant proteins show the same coloration as the negative control Vs24259 (data not shown).

[3] = NADH Production Assay (oxidation of 4-octanol); format: biochemical; details: NAD+, 30° C., FIG. 30A
Description: Various secondary alcohol dehydrogenases (2ADHs) were isolated from Pseudomonas putida KT2440, Pseudomonas fluorescens Pf-5, and Klebsiella pneumoniae MGH 78578. All vectors were transformed in BL21(DE3) competent cells and expression of the genes encoding the proteins of interest was induced with IPTG (via the T7 promoter). The cells were lysed, proteins were extracted and then purified on Ni-NTA columns. Final protein concentration in the Ni-NTA eluate was diluted to 0.15 mg/mL prior to assays.
[…] consumption and production assays were performed using a THERMOmax microplate reader in the kinetic mode, monitoring the NADPH absorbance peak at 340 nm until the reaction reached equilibrium. […] These reaction conditions are found in Table 4 below.

[4] = Kinetic testing of oxidation and reduction reactions with 2ADH-16; format: biochemical; details: 0.04 mg/mL enzyme, pH 6.5(red) or 9.0(ox), 25 C, FIGS. 35 and 36
Description: Similar to above, kinetic testing for both oxidation and reduction reactions was performed on various substrates using 2ADH-16. The conditions for these studies were as follows: 0.04 mg/mL enzyme, 0.25 mg/mL cofactor, 20 mM Tris HCl Buffer pH 6.5(red) or 9.0(ox), T=25 C, 100 uL total volume was used.

B2: Vs24254: functional external alginate lyase of Vibrio splendidus, SEQ ID NO:32 (protein, listed as Vibrio splendidus)
chain: MNKPIFVVVLASLTYGCGGSSSSDSSDPSDTNNSGASYGVVAPYDIAKYQNILSSSDLQVSDPNGEEGNKTSEVKDGNFDGYVSDYFYADEETENLIFKMANYKMRSEVREGENFDINEAGVRRSLHAEISLPDIEHVMASSPADHDEVTVLQIHNKGTDESGTGYIPHPLLRVVWEQERDGLTGHYWAVMKNNAIDCSSAADSSDCYATSYNRYDLGEADLDNFTKFDLSVYENTLSIKVNDEVKVDEDITYWQHLLSYFKAGIYNQFENGEATAHFQALRYTTTQVNGSNDWDINDWKLTIPASKDTWYGSGGDSAAELEPERCESSKDLLANDSDVYDSDIGLSYFNTDEGRVHFRADMGYGTSTENSSYIRSELRELYQSSVQPDCSTSDEDTSWYLDDTRTNATSHELTASLRIEDYPNINNQDPKVVLGQIHGWKINQALVKLLWEGESKPVRVILNSDFERNNQDCNHCDPFSVELGTYSASEEWRYTIRANQDGIYLATHDLDGTNTVSHLIPWGQDYTDKDGDTVSLTSDWTSTDIAFYFKAGIYPQFKPDSDYAGEVFDVSFSSLRAEHN
TBA assay result (cleavage of alginate in growth medium) [2]: positive TBA assay result of pink color

B3: 2ADH-2: secondary alcohol dehydrogenase isolated from Pseudomonas putida KT2440, SEQ ID NO:112 (protein)
chain: MSMTFSGQVALVTGAGAGIGRATALAFAHEGMKVVVADLDPVGGEATVAQIHAAGGEALFIACDVTRDAEVRQLHERLMAAYGRLDYAFNNAGIEIEQHRLAEGSEAEFDAIMGVNVKGVWLCMKYQLPLLLAQGGGAIVNTASVAGLGAAPKMSIYSASKHAVIGLTKSAAIEYAKKGIRVNAVCPAVIDTDMFRRAYQADPRKAEFAAAMHPVGRIGKVEEIASAVLYLCSDGAAFTTGHCLTVDGGATAI
modifications: Pseudomonas putida KT2440
oxidation of 4-octanol measured by NADH production [3]: catalyzes the oxidation of 4-octanol in the presence of NAD+

B4: 2ADH-16: secondary alcohol dehydrogenase isolated from Klebsiella pneumoniae subsp. pneumoniae MGH 78578, SEQ ID NO:138 (protein)
chain: MTAFHNKSVLVLGGSRGIGAAIVRRFVADGASVVFSYSGSPEAAERLAAETGSTAVQADSADRDAVISLVRDSGPLDVLVVNAGIALFGDALEQDSDAIDRLFHINIHAPYHASVEAARRMPEGGRIIVIGSVNGDRMPLPGMAAYALSKSALQGLARGLARDFGPRGITVNVVQPGPIDTDANPENGPMKELMHSFMAIKRHGRPEEVAGMVAWLAGPEASFVTGAMHTIDGAFGA
modifications: Klebsiella pneumoniae subsp. pneumoniae MGH78578
oxidation and reduction of various substrates [4]: capable of catalyzing both the oxidation and reduction of a wide variety of substrates

B5: Vs24259: putative protein of Vibrio splendidus similar to an alginate lyase, SEQ ID NO:34; negative control (protein, listed as Vibrio splendidus)
chain: MKQITLKTLLASSILLAVGCASTSTPTADFPNNKETGEALLTPVAVSASSHDGNGPDRLVDQDLTTRWSSAGDGEWATLDYGSVQEFDAVQASFSKGNQRQSKFDIQVSVDGESWTTVLENQLSSGKAIGLERFQFEPVVQARYVRYVGHGNTKNGWNSVTGLAAVNCSINACPASHIITSDVVAAEAVIIAEMKAAEKARKDARKDLRSGNFGVAAVYPCETTVECDTRSALPVPTGLPATPVAGNSPSENFDMTHWYLSQPFDHDKNGKPDDVSEWNLANGYQHPEIFYTADDGGLVFKAYVKGVRTSKNTKYARTELREMMRRGDQSISTKGVNKNNWVFSSAPESDLESAAGIDGVLEATLKIDHATTTGNANEVGRFIIGQIHDQNDEPIRLYYRKLPNQETGAVYFAHESQDATKEDFYPLVGDMTAEVGDDGIALGEVFSYRIDVKGNTMTVTLIREGKDDVVQVVDMSNSGYDAGGKYMYFKAGVYNQNISGDLDDYSQATFYQLDVSHDQYKK
TBA assay result (cleavage of alginate in growth medium) [2]: little or no cleavage of the alginate polymer has occurred

The remaining lines, values ahead:

product formed from butyroin by sequential reactions [1]: 4-octanone was produced from butyroin
B1: pduCDE: diol dehydratase from Klebsiella pneumoniae MGH 78578, subunits SEQ ID NOs:104, 106, 108 (protein)
chain 1: MRSKRFEALAKRPVNQDGFVKEWIEEGFIAMESPNDPKPSIRIVNGAVTELDDKPVEQFDLIDHFIARYGINLARAEEVMAMDSVKLANMLCDPNVKRSDIVPLTTAMTPAKIVEVVSHMNVVEMMMAMQKMRARRTPSQQAHVTNIKDNPVQIAADAAEGAWRGFDEQETTVAVARYAPFNAIALLVGSQVGRPGVLTQCSLEEATELKLGMLGHTCYAETISVYGTEPVFTDGDDTPWSKGFLASSYASRGLKMRFTSGSGSEVQMGYAEGKSMLYLEARCIYITKAAGVQGLQNGSVSCIGVPSAVPSGIRAVLAENLICSALDLECASSNDQTFTHSDMRRTARLLMQFLPGTDFISSGYSAVPNYDNMFAGSNEDAEDFDDYNVIQRDLKVDGGLRPVREEDVIAIRNKAARALQAVFAGMGLPPITDEEVEAATYAHGSKDMPERNIVEDIKFAQEIINKNRNGLEVVKALAKGGFPDVAQDMLNIQKAKLTGDYLHTSAIIVGEGQVLSAVNDVNDYAGPATGYRLQGERWEEIKNIPGALDPNELG
chain 2: MEINETLLRQIIEEVLSEMKSGADKPVSFSAPAASVASAAPVAVAPVSGDSFLTEIGEAKPGTQQDEVIIAVGPAFGLAQTANIVGIPHKNILREVIAGIEEEGIKARVIRCFKSSDVAFVAVEGNRLSGSGISIGIQSKGTTVIHQRGLPPLSNLELFPQAPLLTLETYRQIGKNAARYAKRESPQPVPTLNDQMARPKYQAKSAILHIKETKYVVTGKNPQELRVAL
chain 3: MNTDAIESMVRDVLSRMNSLQDGITPAPAAPTNDTVRQPKVSDYPLATRHPEWVKTATNKTLDDLTLENVLSDRVTAQDMRITPETLRMQAAIAQDAGRDRLAMNFERAAELTAVPDDRILEIYNALRPYRSTQAELLAIADDLEHRYQARLCAAFVREAAGLYIERKKLKGDD
modifications: Klebsiella pneumoniae MGH78578

product formed from butyroin by sequential reactions [1]: 4-octanone was produced from butyroin
B6: ddh3: diol dehydrogenase isolated from Klebsiella pneumoniae MGH78578, SEQ ID NO:102 (protein)
chain: MKKVALVTGAGQGIGKAIALRLVKDGFAVAIADYNDATAKAVASEINQAGGHAVAVKVDVSDRDQVFAAVEQARKTLGGFDVIVNNAGVAPSTPIESITPEIVDKVYNINVKGVIWGIQAAVEAFKKEGHGGKIINACSQAGHVGNPELAVYSSSKFAVRGLTQTAARDLAPLGITVNGYCPGIVKTPMWAEIDRQVSEAAGKPLGYGTAEFAKRITLGRLSEPEDVAACVSYLASPDSDYMTGQSLLIDGGMVFN
modifications: Klebsiella pneumoniae MGH78578
